The source of these data is paper PMC4499774.

The target of the assay is GST-MED4 CsoS2 (pFC005) (Prochlorococcus marinus str. MED4). Briefly: pull-down; E. coli co-expressing GST-MED4 CsoS2 (pFC005) with CsoS1 and CsoS1D (pFC119); Glutathione-Sepharose magnetic beads; elution by SDS-PAGE, densitometry and Western blot. (A western blot detects proteins with antibodies after separation by electrophoresis.)
Chain of GST-MED4 CsoS2 (pFC005) (Prochlorococcus marinus str. MED4) (Q7V2C8 whole entry): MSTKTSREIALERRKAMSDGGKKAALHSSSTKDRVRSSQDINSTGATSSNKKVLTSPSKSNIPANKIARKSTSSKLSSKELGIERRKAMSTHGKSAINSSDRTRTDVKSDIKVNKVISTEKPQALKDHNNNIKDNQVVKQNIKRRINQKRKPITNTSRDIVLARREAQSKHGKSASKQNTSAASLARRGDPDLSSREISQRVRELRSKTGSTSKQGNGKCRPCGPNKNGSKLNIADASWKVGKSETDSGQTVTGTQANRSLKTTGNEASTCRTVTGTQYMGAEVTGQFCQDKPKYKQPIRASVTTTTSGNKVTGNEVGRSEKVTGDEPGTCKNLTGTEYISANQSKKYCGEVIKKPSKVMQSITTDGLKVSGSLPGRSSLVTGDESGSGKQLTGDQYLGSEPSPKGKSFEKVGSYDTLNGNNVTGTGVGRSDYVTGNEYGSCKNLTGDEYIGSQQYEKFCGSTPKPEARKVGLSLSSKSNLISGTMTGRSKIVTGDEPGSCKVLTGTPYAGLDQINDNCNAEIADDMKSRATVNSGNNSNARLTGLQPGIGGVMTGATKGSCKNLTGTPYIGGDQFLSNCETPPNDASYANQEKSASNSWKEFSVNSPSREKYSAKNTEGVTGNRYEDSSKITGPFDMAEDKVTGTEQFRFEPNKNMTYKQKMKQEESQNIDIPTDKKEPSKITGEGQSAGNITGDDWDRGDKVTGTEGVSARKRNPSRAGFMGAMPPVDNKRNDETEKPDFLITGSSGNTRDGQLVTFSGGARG

B1: MED4 CsoS1D co-expressed with GST-MED4 CsoS2 (pFC119) (natural protein)
chain: MEPTSSLNRGDRKKGSSLVTGSEVQSQSNGASCFITTDSEKSLVSRQASQVEQIELRTYVFLDSLQPQLAAYMGTVSRGFLPIPGDSCLWMEVSPGMAVHRVTDIALKASNVRLGQMIVERAFGSLALYHKDQSTVLHSGDVVLDAIGSEVRKRTKPSTSWTEVICAITPDHAVLINRQNRSGSMIQSGMSMFILETEPAGYVLKAANEAEKSANITIIDVKAVGAFGRLTLAGKEGDVEEAAAAAIRAIDQISNY
B1: the molar ratio of CsoS1D to GST-CsoS2 in the elution fraction (densitometry) came to 5 molar ratio.
